According to patent publication US20260275312, “CRISPR NUCLEASE POLYPEPTIDES AND GENE EDITING SYSTEMS COMPRISING SUCH” (ARBOR BIOTECHNOLOGIES, INC., published 2026):

What was measured:
Nuclease S D844R = target: T1, Nuclease S D844R (synthetic construct, D844R); assay: cell_activity; HEK293T; PAM AACC; settings: tags: N-term SV40 NLS, XTEN linker + C-term nucleoplasmin NLS
T1 chain: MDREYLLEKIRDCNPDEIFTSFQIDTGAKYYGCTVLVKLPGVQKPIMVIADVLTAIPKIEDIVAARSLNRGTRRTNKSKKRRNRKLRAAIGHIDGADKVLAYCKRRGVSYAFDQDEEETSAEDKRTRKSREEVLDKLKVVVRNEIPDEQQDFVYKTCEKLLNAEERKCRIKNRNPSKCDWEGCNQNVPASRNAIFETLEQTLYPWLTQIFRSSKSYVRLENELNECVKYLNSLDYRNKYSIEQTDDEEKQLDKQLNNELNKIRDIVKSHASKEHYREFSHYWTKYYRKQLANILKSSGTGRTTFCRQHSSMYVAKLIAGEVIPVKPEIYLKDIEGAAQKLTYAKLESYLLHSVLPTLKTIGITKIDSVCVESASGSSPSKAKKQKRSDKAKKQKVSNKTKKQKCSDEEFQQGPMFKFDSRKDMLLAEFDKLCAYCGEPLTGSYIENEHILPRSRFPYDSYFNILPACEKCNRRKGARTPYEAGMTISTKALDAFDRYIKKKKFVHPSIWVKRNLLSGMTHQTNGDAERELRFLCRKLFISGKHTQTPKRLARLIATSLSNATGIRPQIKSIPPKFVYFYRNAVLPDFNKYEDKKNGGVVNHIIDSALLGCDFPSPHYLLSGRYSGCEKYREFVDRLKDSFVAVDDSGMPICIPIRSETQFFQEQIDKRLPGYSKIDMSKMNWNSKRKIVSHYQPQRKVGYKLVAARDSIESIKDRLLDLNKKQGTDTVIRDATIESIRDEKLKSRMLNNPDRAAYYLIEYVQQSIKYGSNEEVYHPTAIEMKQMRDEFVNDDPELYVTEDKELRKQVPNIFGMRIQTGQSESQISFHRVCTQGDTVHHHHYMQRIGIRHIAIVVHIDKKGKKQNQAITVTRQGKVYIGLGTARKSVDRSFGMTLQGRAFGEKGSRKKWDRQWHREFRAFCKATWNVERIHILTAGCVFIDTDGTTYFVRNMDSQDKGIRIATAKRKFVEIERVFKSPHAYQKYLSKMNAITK
Description: (§1) HEK293T cells were transfected with plasmids expressing the Nuclease S polypeptides and the gRNAs provided herein following the methods provided in Example 1 above. Gene editing efficiencies were determined by NGS following the methods also provided in Example 1. The NGS results were analyzed also following the methods provided in Example 1 above.
(§2) For each target, indel ratios, referring to the percentage of NGS reads comprising indels, were calculated for the reference and for each variant. The indel ratios used for fold change calculations were the average of two technical replicates. To then calculate fold change in indel ratios at a particular target, the indel ratio for each variant was divided by the indel ratio for the reference. […] Numbering is relative to the reference nuclease of SEQ ID NO: 49 (i.e., without an NLS). […] The average fold change in indel ratio for the D844R variant at all targets was 5.27 times that of the indel ratio for the reference at all targets.

Nuclease S D179R = target: T2, Nuclease S D179R (synthetic construct, D179R); assay: cell_activity; HEK293T; PAM AACC; settings: tags: N-term SV40 NLS, XTEN linker + C-term nucleoplasmin NLS
T2 chain: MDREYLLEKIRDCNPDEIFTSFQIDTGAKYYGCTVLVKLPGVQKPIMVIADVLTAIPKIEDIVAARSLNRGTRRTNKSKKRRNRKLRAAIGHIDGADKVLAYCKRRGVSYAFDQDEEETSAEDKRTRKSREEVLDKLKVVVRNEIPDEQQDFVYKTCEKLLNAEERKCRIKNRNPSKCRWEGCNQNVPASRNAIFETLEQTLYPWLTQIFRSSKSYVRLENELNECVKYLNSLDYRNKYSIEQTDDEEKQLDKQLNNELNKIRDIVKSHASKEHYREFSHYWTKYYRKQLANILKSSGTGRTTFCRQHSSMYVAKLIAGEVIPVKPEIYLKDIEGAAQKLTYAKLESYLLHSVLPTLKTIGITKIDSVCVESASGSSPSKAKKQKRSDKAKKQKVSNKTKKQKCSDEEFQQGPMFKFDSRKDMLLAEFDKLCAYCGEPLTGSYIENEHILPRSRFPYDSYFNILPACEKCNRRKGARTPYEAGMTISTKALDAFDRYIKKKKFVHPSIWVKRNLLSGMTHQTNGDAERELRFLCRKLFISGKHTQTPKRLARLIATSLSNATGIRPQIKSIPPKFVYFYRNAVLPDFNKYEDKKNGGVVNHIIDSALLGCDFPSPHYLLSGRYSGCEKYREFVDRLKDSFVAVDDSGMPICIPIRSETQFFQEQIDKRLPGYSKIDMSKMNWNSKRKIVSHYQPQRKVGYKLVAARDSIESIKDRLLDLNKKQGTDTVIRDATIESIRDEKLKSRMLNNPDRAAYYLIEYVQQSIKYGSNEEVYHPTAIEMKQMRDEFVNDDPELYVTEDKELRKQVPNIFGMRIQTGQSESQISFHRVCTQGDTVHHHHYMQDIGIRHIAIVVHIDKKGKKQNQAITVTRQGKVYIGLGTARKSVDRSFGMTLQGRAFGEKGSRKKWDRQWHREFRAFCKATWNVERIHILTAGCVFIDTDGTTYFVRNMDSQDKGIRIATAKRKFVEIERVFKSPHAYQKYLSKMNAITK
Description: as §1, §2

B1: S AAVS1-T7 RNA guide ; AAVS1-T7 target (S) (ssRNA ; dsDNA)
RNA: GGCUAUAAUCCAUGCUGACCGUUGUAUUCGGAUGGGAGUAAAAGGUUGAGUACACCUGGAAACAAAACGACAUAAAGGUGUUCUCCCAUCUGUGUACAAAGAGCAGAUAUAUGAGUUGAUAAGUAAUAUGUUGCACGUAUGGACUUUGACAGUCUGUACCUCUGCGUGAAAGACAUAUUGCGUUAUUCAUAUAUCUGUGAGUCUGUUCUAAAUUUAAAGGUUUAGGGAA
DNA 1: GGCTATAATCCATGCTGACC
DNA 2: GGTCAGCATGGATTATAGCC
- fold change in indel ratio vs reference (Nuclease S D844R): 6.37 fold indel vs reference
- fold change in indel ratio vs reference (Nuclease S D179R): 6.38 fold indel vs reference
